Test results reported in patent US20080193435A1, “Revascularization of Ischemic Retinal Tissue and Screening Method Therefor” (priority 2005, published 2008).
Entries after “also recorded” stand apart in the source; their conditions may differ.

Assays:
[1] = test system: mouse OIR model; test: Mouse oxygen-induced retinopathy (OIR) model, whole-mount retina quantification of vascular obliteration and neovascular tuft areas; type: in vivo; set-up: vascular morphology of the retina / neovascular tuft areas compared to VEGF aptamer treated retinas: dose or concentration left out as unconfirmed; conditions: for effect on area of neovascular tuft formation: single intravitreal injection at P12, various doses; for effect on physiological revascularization of the retina: vs PBS control
Description: All animal work adhered to strict protocol guidelines for the humane care and use of animals in research. OIR was induced according to the protocol described by Smith et al. Invest. Opthalmol. Vis. Sci., 1994; 35:101-111. Seven-day old mouse pups and their mothers were transferred from room air to a hyperoxic environment of about 75% oxygen for 5 days, and afterwards returned to room air (normoxia). Exposure to hyperoxic conditions was performed by putting the animal cages within a modified human infant incubator. Oxygen was circulated through the incubator (using an animal anesthesia machine to control flow) and levels were monitored and maintained at 74-75% using an FDA-approved oxygen analyzer (AX-300, Teledyne Analytical Instruments, CA, USA). During the 5 days of hyperoxia, the animals were examined at least three times daily. Unlimited food and water were available to the mothers throughout the experiment. After 5 days, i.e., at postnatal Day 12 (P12), cages were returned to room air.
After the mice were euthanized, enucleated eyes were fixed in 4% paraformaldehyde in PBS for about 10 minutes, and the retinas were dissected by making a circular cut behind the limbus, approximately at the iris root, and then removing the anterior part of the eye. The lens and vitreous were dissected out, and the retina was separated from the scleral and choroidal layers leaving the retina in an eye-cup configuration. Radial relaxing-incisions were made in the retina to allow it to flatten and any remnants of the vitreous or hyaloid were carefully removed from the flattened retina.
For FITC-dextran angiography, animals were anaesthetized by intraperitoneal injections of Ketamine HCl (Ketalar, Parke Davis, UK, 100 mg/kg) in combination with the relaxing agent Xylazine (2 mg/kg). Approximately 300 μl of high molecular weight (2×106 Da) FITC-Dextran (concentration 50 mg/ml, Sigma, St. Louis, Mo.) were injected into the left ventricle and allowed to circulate for approximately two minutes before euthanizing the animal and enucleating the eyes. For isolectin G4 staining, retinas were post-fixed in 4% paraformaldehyde for about 45 minutes, and incubated at room temperature overnight with isolectin GS-IB4 from Griffonia simplicifolia (isolectin GS) that was conjugated to Alexa Fluor 59 4 (Molecular Probes, 1:150 dilution in phosphate buffered saline (PBS)) to afford “isolectin GS-594”. Following 4-5 washes with PBS over a 2 hour span, retinas were mounted as whole-mount preparations on slides with SLOW FADE (Molecular Probes) for subsequent imaging.
Micrographic images were taken using a 4× objective lens with a detector resolution of 512×512 pixels. Extra care was taken to focus just above the inner limiting membrane of the retina using confocal microscopy (BioRad) so that the pre-laminar neovascular tufts became more prominent than the underlying superficial vascular plexus making subsequent quantification of the neovascular tuft areas easier. In most cases, four overlapping images (each representing one retinal quadrant) were acquired from each retina. Using Adobe PHOTOSHOP® 6.0, montages were then created using retinal landmarks such as the optic disc and major vessels to align the images. These montages allowed visualization and quantification of the entire retina. In a few cases where both the obliterated areas and all areas of neovascularization were located toward the center of the retina, single 4× images centered on the optic disk were acquired. While the peripheral retina is not included in its entirety in such images, the relevant OIR-induced changes can be fully seen in these cases. Each individual image was converted to a 2×2 inch size with 300 pixels per inch resolution prior to creating the montage and quantifying the obliteration and neovascular tuft areas. […]

[2] = test system: angiogenesis; conditions: previously found; cited from earlier work
[3] = single intravitreal injection at P12, read at P17

| Molecule | effect on area of neovascular tuft formation ([1]; read at P17) | effect on physiological revascularization of the retina [1, 3] | angiostatic activity in other models of angiogenesis [2] | reduction of tuft formation ([1]; P19, after two injections (P13 and P16) of lower doses, VEGF aptamer 0.5 mg/eye/injection, 53.9 picomoles) | neovascular tuft areas compared to VEGF aptamer treated retinas ([1]; T2-TrpRS, intravitreal, molar concentration 10-fold below the aptamer) | inhibition of neovascular tuft formation ([1]; about 1.25 μg/eye, intravitreal) | vascular morphology of the retina ([1]; intravitreal at P12, P17) | obliterated areas compared to control retinas ([1]; intravitreal injection, areas of obliteration equivalent at time of injection) | reduction of obliterated areas at P17 compared to PBS control-injected retinas [1, 3] |
| --- | --- | --- | --- | --- | --- | --- | --- | --- | --- |
| FL-TrpRS: full-length tryptophan tRNA synthetase (protein, UniProt P23381 1-471, looked up, full-length, full-length tryptophan tRNA synthetase) MPNSEPASLLELFNSIATQGELVRSLKAGNASKDEIDSAVKMLVSLKMSYKAAAGEDYKADCPPGNPAPTSNHGPDATEAEEDFVDPWTVQTSSAKGIDYDKLIVRFGSSKIDKELINRIERATGQRPHHFLRRGIFFSHRDMNQVLDAYENKKPFYLYTGRGPSSEAMHVGHLIPFIFTKWLQDVFNVPLVIQMTDDEKYLWKDLTLDQAYSYAVENAKDIIACGFDINKTFIFSDLDYMGMSSGFYKNVVKIQKHVTFNQVKGIFGFTDSDCIGKISFPAIQAAPSFSNSFPQIFRDRTDIQCLIPCAIDQDPYFRMTRDVAPRIGYPKPALLHSTFFPALQGAQTKMSASDPNSSIFLTDTAKQIKTKVNKHAFSGGRDTIEEHRQFGGNCDVDVSFMYLTFFLEDDDKLEQIRKDYTSGAMLTGELKKALIEVLQPLIAEHQARRKEVTDEIVKEFMTPRKLSFDFQ | some activity at the highest dose | significant enhancement of the revascularization process but only at the higher doses | no angiostatic activity |  |  |  |  |  |  |
| T2-TrpRS: proteolytic fragment of tryptophan tRNA synthetase (TrpRS); SEQ ID NO: 1 (protein, listed as Homo sapiens) SAKGIDYDKLIVRFGSSKIDKELINRIERATGQRPHHFLRRGIFFSHRDMNQVLDAYENKKPFYLYTGRGPSSEAMHVGHLIPFIFTKWLQDVFNVPLVIQMTDDEKYLWKDLTLDQAYSYAVENAKDIIACGFDINKTFIFSDLDYMGMSSGFYKNVVKIQKHVTFNQVKGIFGFTDSDCIGKISFPAIQAAPSFSNSFPQIFRDRTDIQCLIPCAIDQDPYFRMTRDVAPRIGYPKPALLHSTFFPALQGAQTKMSASDPNSSIFLTDTAKQIKTKVNKHAFSGGRDTIEEHRQFGGNCDVDVSFMYLTFFLEDDDKLEQIRKDYTSGAMLTGELKKALIEVLQPLIAEHQARRKEVTDEIVKEFMTPRKLSFDFQ | markedly reduced the area of neovascular tuft formation at P17 in a dose-dependent matter; also recorded: potent inhibitors of neovascular tuft formation; also recorded: strong, dose-dependent angiostatic effect | significantly enhanced revascularization, even at lower doses | potent angiostatic potential | over 75% | slight, but significant reduction | nearly complete inhibition | looked nearly normal | reduced by half | around 40% |
